The text below walks through data of paper PMC12512739.

In assay [1] the target is Annexin A2 (endogenous, PK-15 cells) (pig (endogenous in PK-15)) (UniProt P19620).
Assay [2] has the same target. This is another data set of the same source.
Assay [3] addresses Porcine circovirus type 2 (PCV2) virus particles (capsid of Cap) (porcine circovirus type 2 (genotype 2d, strain ChenZ-2-1)).
Assay [4] addresses PCV2 virus-like particles (VLPs) assembled from the capsid protein (Cap) (porcine circovirus type 2 (genotype 2d, strain ChenZ-2-1)).

Sequence of UniProt P19620 (P19620 whole entry): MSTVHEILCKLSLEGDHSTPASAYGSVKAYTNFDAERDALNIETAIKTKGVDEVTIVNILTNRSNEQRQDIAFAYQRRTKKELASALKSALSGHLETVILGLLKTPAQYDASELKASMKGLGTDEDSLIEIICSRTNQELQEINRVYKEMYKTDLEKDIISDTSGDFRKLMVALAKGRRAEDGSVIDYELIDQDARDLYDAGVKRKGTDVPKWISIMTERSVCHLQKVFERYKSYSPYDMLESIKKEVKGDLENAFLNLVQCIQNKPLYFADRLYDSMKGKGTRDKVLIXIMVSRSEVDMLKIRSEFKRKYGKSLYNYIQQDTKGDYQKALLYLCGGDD

In the case of “Porcine circovirus type 2 (PCV2) virus particles (capsid of Cap) (complex)”, in assay [1], the reduction of PCV2 particles attached to PK-15 cells at 4 °C (qPCR) after pretreatment of the cells with ANXA2-specific antibody (30 μg/mL) amounted to 25.2%. For the same substance, in assay [2], the decrease in PCV2 infectivity by IFA (Cap fluorescence) in PK-15 cells pretreated with ANXA2-specific polyclonal antibody, against control cells was 30%; the reduction of viral genome copies in PK-15 cells at 36 hpi (qPCR) after pretreatment of the cells with anti-ANXA2 polyclonal antibody at 10 and 30 μg/mL came to 42.7%.

Turning to “recombinant soluble full-length porcine ANXA2 with an N-terminal His-tag (pET-28a(+)) (from UniProt P19620 1-339) (natural protein)”, the inhibition of PCV2 attachment to PK-15 cells at 4 °C (bound virus by qPCR) after preincubation of PCV2 with rANXA2 (20 μg/mL); blocks PCV2 and cell surface ANXA2 in assay [3] is 32.7%. The same substance gave a decrease of PCV2 VLP binding to PK-15 cells at 4 °C (immunofluorescence with anti-Cap antibody, fluorescence intensity) after preincubation of VLPs with rANXA2 (20 μg/mL) in assay [4] of 19.4%.
